Data taken from US20220160842A1, “METHOD OF TREATING INFECTIVE ENDOCARDITIS” (priority 2019, published 2022).
In brackets after ≈: the same amount, converted by molar mass. Several values for one entry are separate records, joined by “and”; a condition that tells them apart may be missing. Equal entries are not always repeated. Where two headings read alike, the source gives them in different places.

Assays:
[1] = test system: MRSA strain MW2; assay: Infective endocarditis rabbit model, CF-301 in series with daptomycin (Example 2); type: in vivo, rabbits
Experimental: The rational for selection of the daptomycin dose is as follows. Daptomycin pilot dose-response experiments were performed over a range from 1 mg/kg to 10 mg/kg, administered intravenously, once daily for 4 days in the infective endocarditis rabbit model described below, which was caused by the MRSA strain, MW2. FIG. 2 depicts data for individual animals, plotted as treatment regimen versus log10 CFU/g tissue (mean±SEM are shown). From these studies, a daptomycin dose-response was defined. […] In the rabbit infective endocarditis model, a daptomycin-alone dose of 4 mg/kg administered intravenously provided about 0.25 to 1.45 log10 reduction in bacterial burden compared to vehicle-treated controls.
A well-described indwelling transcarotid artery-to-left ventricle catheter-induced model of aortic valve infective endocarditis was used in rabbits. See Xiong et al., 2011, AAC, 55:P5325-5330. At 48 hours after catheter placement, infective endocarditis was induced by intravenous inoculums of about 2×10^5 CFU (the induction of ID95 of MRSA strain MW2 in this model). […] Daptomycin administration was continued once a day for 4 days. At 24 hours after the last dose of daptomycin, animals were humanely euthanized and cardiac vegetations, kidneys, and spleens were sterilely removed and quantitatively cultured. Bacterial density for each organ for the different treatment groups were calculated as mean log10 CFU/g of tissue (±95% confidence interval).

[2] = test system: S. haemolyticus; assay: MIC by broth microdilution; type: cell-based, Staphylococcus haemolyticus; settings: S. haemolyticus, N=36
Experimental: (§1) Minimal inhibitory concentrations (MICs) of exebacase against staphylococci were determined by broth microdilution (BMD) using a nonstandard antimicrobial susceptibility testing (AST) medium comprised of cation-adjusted Mueller Hinton broth (caMHB) supplemented with horse serum (Sigma Aldrich) and dithiothreitol (DTT; Sigma Aldrich) to final concentrations of 25% and 0.5 mM, respectively. This medium, referred to as caMHB-HSD, is approved for use in exebacase AST by the Clinical and Laboratory Standards Institute (CLSI) (CLSI. 2017, Jan. 16-17. AST Subcommittee Working Group Meetings and Plenary. AST Meeting Files & Resources, clsi.org/education/microbiology/ast/ast-meeting-files-resources/. Additional supplementation with 2.5% lysed red blood cells (Remel™, ThermoFisher) was included for analyses of streptococcal isolates, as recommended by CLSI. See CLSI, 2015. Methods for Dilution Antimicrobial Susceptibility Tests for Bacteria That Grow Aerobically, 10th Edition. Clinical and Laboratory Standards Institute, Wayne, Pa.
(§2) Daptomycin (Sigma Aldrich) and vancomycin hydrochloride (Sigma Aldrich) were tested following the reference BMD method for each. See CLSI. 2015. Methods for Dilution Antimicrobial Susceptibility Tests for Bacteria That Grow Aerobically, 10th Edition. Clinical and Laboratory Standards Institute, Wayne, Pa.

[3] = test system: all staphylococci tested; assay: MIC by broth microdilution; type: cell-based
Experimental: as §2

[4] = test system: S. epidermidis; assay: MIC by broth microdilution; type: cell-based, Staphylococcus epidermidis; settings: N=52
Experimental: as §1, §2

[5] = test system: S. hyicus; assay: MIC by broth microdilution; type: cell-based, Staphylococcus hyicus; settings: n=1 isolate
Experimental: as §1

[6] = healthy subjects, estimated previously; cited from earlier work
[7] = test system: S. aureus bacteremia/endocarditis; assay: Phase II clinical study, CF-301 plus standard of care antibiotics; type: in vivo, human
Experimental: These 116 patients constituted the microbiological intent to treat (mITT) population of a Phase II clinical study and was the primary efficacy analysis population. The primary efficacy endpoint was the clinical responder rate (CRR) at Day 14. Diagnosis and clinical outcomes were determined by a blinded Adjudication Committee.

[8] = test system: S. simulans; assay: MIC by broth microdilution; type: cell-based, Staphylococcus simulans; settings: n=1 isolate
Experimental: as §1

[9] = test system: S. pseudintermedius; assay: MIC by broth microdilution; type: cell-based, Staphylococcus pseudintermedius; settings: each of n=6 isolates
Experimental: as §1

[10] = test system: S. sciuri; assay: MIC by broth microdilution; type: cell-based, Staphylococcus sciuri; settings: n=3 isolates
Experimental: as §1

[11] = test system: S. intermedius; assay: MIC by broth microdilution; type: cell-based, Streptococcus intermedius; settings: S. intermedius (viridans), N=10
Experimental: as §1, §2

[12] = test system: Staphylococcus hominis; assay: MIC by broth microdilution; type: cell-based; settings: n=2 strains, listed as exebacase
Experimental: as §1

[13] = CF-301 0.09 mg/kg 1 hour prior to the initial dose of DAP 4 mg/kg IV QD x 4 days
[14] = CF-301 0.09 mg/kg 2 hours after the initial dose of DAP 4 mg/kg IV QD x 4 days
[15] = CF-301 0.09 mg/kg 2 hours prior to the initial dose of DAP 4 mg/kg IV QD x 4 days
[16] = CF-301 0.09 mg/kg 4 hours after the initial dose of DAP 4 mg/kg IV QD x 4 days
[17] = CF-301 0.09 mg/kg 4 hours prior to the initial dose of DAP 4 mg/kg IV QD x 4 days
[18] = CF-301 0.09 mg/kg immediately after the initial dose of DAP 4 mg/kg IV QD x 4 days

CCCCCCCCCC(=O)N[C@@H](Cc1c[nH]c2ccccc12)C(=O)N[C@H](CC(N)=O)C(=O)N[C@@H](CC(=O)O)C(=O)N[C@@H]1C(=O)NCC(=O)N[C@@H](CCCN)C(=O)N[C@@H](CC(=O)O)C(=O)N[C@H](C)C(=O)N[C@@H](CC(=O)O)C(=O)NCC(=O)N[C@H](CO)C(=O)N[C@@H]([C@H](C)CC(=O)O)C(=O)N[C@@H](CC(=O)c2ccccc2N)C(=O)O[C@@H]1C [DAP, Daptomycin]
bacterial burden remaining in treated animals ([1]; daptomycin alone 4 mg/kg intravenously): 5-7 log10
reduction in bacterial burden compared to vehicle-treated controls ([1]; daptomycin alone 4 mg/kg intravenously, once daily for 4 days, pilot dose-response): 0.25 to 1.45 log10
MIC Range [2]: 0.25 to 2 µg/mL
MIC50 ([2]; Staphylococcus haemolyticus, read-out: MIC50): 0.5 µg/mL (≈ 0.309 µM)
MIC90 ([2]; Staphylococcus haemolyticus, read-out: MIC90): 1 µg/mL (≈ 0.617 µM)
MIC Range [3]: 0.125 to 2 µg/mL

B1: CF-301: anti-staphylococcal lysin encoded within a prophage of the Streptococcus suis genome, SEQ ID NO: 2 with or without initial methionine (protein, listed as Streptococcus suis)
chain: MTTVNEALNNVRAQVGSGVSVGNGECYALASWYERMISPDATVGLGAGVGWVSGAIGDTISAKNIGSSYNWQANGWTVSTSGPFKAGQIVTLGATPGNPYGHVVIVEAVDGDRLTILEQNYGGKRYPVRNYYSAASYRQQVVHYITPPGTVAQSAPNLAGSRSYRETGTMTVTVDALNVRRAPNTSGEIVAVYKRGESFDYDTVIIDVNGYVWVSYIGGSGKRNYVATGATKDGKRFGNAWGTFK
MRSA density, Mean Log10 CFU/g tissue ± STD, Kidneys [1, 13]: 3.53 ± 0.59 Log10 CFU/g tissue
MRSA density, Mean Log10 CFU/g tissue ± STD, Spleen [1, 13]: 3.55 ± 0.74 Log10 CFU/g tissue
MRSA density, Mean Log10 CFU/g tissue ± STD, Vegetation [1, 13]: 4.16 ± 0.82 Log10 CFU/g tissue
MRSA density, Mean Log10 CFU/g tissue ± STD, Kidneys [1, 14]: 2.29 ± 0.87 Log10 CFU/g tissue
MRSA density, Mean Log10 CFU/g tissue ± STD, Spleen [1, 14]: 2.23 ± 1.09 Log10 CFU/g tissue
MRSA density, Mean Log10 CFU/g tissue ± STD, Vegetation [1, 14]: 2.25 ± 1.39 Log10 CFU/g tissue
MRSA density, Mean Log10 CFU/g tissue ± STD, Kidneys [1, 15]: 3.48 ± 0.47 Log10 CFU/g tissue
MRSA density, Mean Log10 CFU/g tissue ± STD, Spleen [1, 15]: 3.31 ± 0.57 Log10 CFU/g tissue
MRSA density, Mean Log10 CFU/g tissue ± STD, Vegetation [1, 15]: 3.54 ± 0.68 Log10 CFU/g tissue
MRSA density, Mean Log10 CFU/g tissue ± STD, Kidneys [1, 16]: 3.78 ± 0.51 Log10 CFU/g tissue
MRSA density, Mean Log10 CFU/g tissue ± STD, Spleen [1, 16]: 3.49 ± 0.33 Log10 CFU/g tissue
MRSA density, Mean Log10 CFU/g tissue ± STD, Vegetation [1, 16]: 4.31 ± 0.89 Log10 CFU/g tissue
MRSA density, Mean Log10 CFU/g tissue ± STD, Kidneys [1, 17]: 2.97 ± 0.32 Log10 CFU/g tissue
MRSA density, Mean Log10 CFU/g tissue ± STD, Spleen [1, 17]: 3.18 ± 0.35 Log10 CFU/g tissue
MRSA density, Mean Log10 CFU/g tissue ± STD, Vegetation [1, 17]: 3.45 ± 0.63 Log10 CFU/g tissue
MRSA density, Mean Log10 CFU/g tissue ± STD, Kidneys [1, 18]: 2.77 ± 0.65 Log10 CFU/g tissue
MRSA density, Mean Log10 CFU/g tissue ± STD, Spleen [1, 18]: 2.60 ± 0.17 Log10 CFU/g tissue
MRSA density, Mean Log10 CFU/g tissue ± STD, Vegetation [1, 18]: 3.23 ± 0.36 Log10 CFU/g tissue
MRSA densities in all three target tissues as compared to the controls and daptomycin alone ([1]; single dose of CF-301 added to daptomycin regimen, all time-points tested): significantly reduced
effect of age on AUC0-24 or Cmax (covariate on peripheral clearance): less than 4%
CL lower than in healthy subjects (patients vs healthy subjects): 40%
Vd lower than in healthy subjects (patients vs healthy subjects): 17%
fold higher AUC0-24 or Cmax than patients with normal renal function (patients with moderate and severe renal impairment, expected from PPK model): 1.3 to 2 fold
Total volume distribution (patients, PPK model): 20.2 L
central compartment (Vc) (patients, PPK model, RSE 8.2%): 4.5 L
Clearance (patients, three-compartment PPK model, RSE 5.5%): 4.2 Liters (L)/hour (hr)
MIC50 [4]: 0.5 µg/mL
MIC90 [4]: 0.5 µg/mL
MIC Range [4]: 0.125 to 2 µg/mL
MIC [5]: 0.25 µg/mL
MIC50 [2]: 0.5 µg/mL
MIC90 [2]: 1 µg/mL
MIC Range [2]: 0.25 to 2 µg/mL
CL [6]: 7.1 L/h
volume distribution (Vd) [6]: 27.7 L
hypersensitivity ([7]; CF-301 treatment group): no reports of hypersensitivity
incidence of treatment emergent adverse events (TEAEs) ([7]; CF-301 treatment group): 88.9%
serious TEAEs ([7]; CF-301 treatment group): 47.2%
CRR higher than in patients treated with standard of care antibiotics alone ([7]; MRSA-infected patients): about 40%
CRR ([7]; MRSA-infected patients, CF-301 and standard of care antibiotics): 74.10%
tolerability ([7]; addition of CF-301 to a standard of care antibiotic regimen): well-tolerated
died ([7]; from study drug administration through 28 days after the end of SOC antibiotic treatment): 19.4%
clinical responder rate (CRR) at Day 14 ([7]; mITT population, single two hour infusion of CF-301 plus SOC antibiotics): 70.4%
CRR ([7]; patients with bacteremia alone): 81.8%
CRR ([7]; subset with bacteremia/right-sided endocarditis): 80%
MIC [8]: 0.125 µg/mL
MIC [9]: 0.25 µg/mL
MIC [10]: 2 µg/mL
MIC50 [11]: 0.25 µg/mL
MIC90 [11]: 0.25 µg/mL
MIC Range [11]: 0.06 to 0.5 µg/mL
MIC [12]: 0.125 µg/mL and 0.25 µg/mL
